Reference: the supplement of paper PMC10126150
± gives the standard deviation of the averaged measurements.

Test system: ATP
Test: switch fluorescence ratio, 500 uM ATP over buffer (Cy3 cluster intensity, sum of 5 cycles each) (fold (ratio)); higher = stronger signal-on switching upon ATP binding; sequences stand for … in TCGTCGGCAGCGTCAGATGTGTATAAGAGACAGTTTTTTTTTTTTTTTTTTTTTTTTT…TC
Conditions: aptamer strand: ATP DNA aptamer (quencher-CACCTGGGGGAGTATTGCGGAGGAAGG + anchor), 100 nM annealed; ATP concentration: 500 uM
Summary of the method: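 Cy3-labelled switching-strand clusters on a modified Illumina MiSeq flow-cell were annealed to 100 nM quencher-labelled ATP aptamer and imaged first in selection buffer, then after 15 min with 500 uM ATP at 22 °C. NaOH stripping and re-annealing separated each of five buffer/ATP cycles, and clusters outside 100-1000 RFU were excluded. The fluorescence ratio sums target-cycle Cy3 intensity over buffer-cycle Cy3 intensity per cluster and averages it per switch-domain sequence.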
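Further: ATP exposure 15 min at 22 °C before imaging.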

| Sequence | switch fluorescence ratio |
| --- | --- |
| TAAAGGCGTG | 0.96 ± 0.022 |
| ATAGCGAGGA | 1.05 ± 0.034 |
| ACGACCTTGT | 1.03 ± 0.018 |
| TGATCATGCG | 1 ± 0.011 |
| ATGGTGGGAG | 0.992 ± 0.0061 |
| TATATGGGTT | 0.9849 ± 0.0062 |
| ACGTTGCACA | 1.18 ± 0.016 |
| GCGGATGCTT | 0.9718 ± 0.0056 |
| CCGCTCGGGG | 1.05 ± 0.053 |
| TTCGGGGGTG | 1.01 ± 0.031 |
| GGCACGGGGC | 1.02 ± 0.024 |
| CATGGGATGG | 1.01 ± 0.0074 |
| TTGCTTCCGT | 1.1 ± 0.084 |
| CAGGGCGACA | 0.9924 ± 0.0012 |
| AGTTAGGGTA | 0.9744 ± 0.0059 |
| ATAGAGAGAG | 1.02 ± 0.014 |
| TTAACTTCGG | 0.9712 ± 0.0059 |
| AGGGGGTCTA | 1.013 ± 0.0014 |
| GGTGAAATGT | 0.9561 ± 0.0059 |
| GATCAGGTCT | 0.987 ± 0.032 |
| TAGCGTTTGG | 1.01 ± 0.045 |
| TTGCTAAAGC | 1.038 ± 0.0054 |
| GTTTTAACGG | 1.02 ± 0.029 |

| Sequence | switch fluorescence ratio |
| --- | --- |
| CAATTTGATG | 0.979 ± 0.05 |
| TTGGAGGTTA | 0.973 ± 0.017 |
| TAAAAAGCGA | 0.987 ± 0.012 |
| ATCAATTTAA | 0.976 ± 0.039 |
| GAGGGCTACT | 1.04 ± 0.041 |
| GTTTTTTCCG | 0.992 ± 0.012 |
| TTTTCTACCC | 1.03 ± 0.059 |
| TTGTTTATCA | 0.9865 ± 0.0096 |
| AGGCCCACAT | 1.01 ± 0.046 |
| ATTCAGGCTT | 1.029 ± 0.0019 |
| GGTTTTATAC | 1.04 ± 0.02 |
| TACCATGGTT | 0.9841 ± 0.0061 |
| ATATAGTGTA | 0.99 ± 0.029 |
| TAAAAATCCC | 1.16 ± 0.083 |
| TATTTTGACG | 0.9151 ± 0.0046 |
| TACCACGGGT | 1.03 ± 0.018 |
| ATAGAATAGA | 0.985 ± 0.02 |
| CAAATGGGTC | 1.06 ± 0.046 |
| TTCAGGATA | 1.01 ± 0.033 |
| TCCTGATTGC | 1.03 ± 0.038 |
| AGATTTAGTA | 0.982 ± 0.06 |
| TCAAAAGTTG | 1.04 ± 0.044 |
| GGCTTGTGTA | 0.965 ± 0.015 |

| Sequence | switch fluorescence ratio |
| --- | --- |
| TATCGTATTC | 0.97 ± 0.037 |
| GACGTTGCTA | 1.06 ± 0.019 |
| TTTAAGACAC | 1.03 ± 0.022 |
| ATTTCCACAA | 1.1 ± 0.03 |
| TAGCATGTGG | 1.0006 ± 0.0008 |
| TTTAAAAGTC | 1.07 ± 0.086 |
| TTAGAGTGGT | 1.01 ± 0.033 |
| GGGAATGTAA | 0.973 ± 0.036 |
| GTGAGATGGA | 0.953 ± 0.03 |
| AAAACGTTTG | 1.025 ± 0.0023 |
| TGGTTGGGTT | 1 ± 0.021 |
| TGAGTGAATG | 0.9787 ± 0.0042 |
| CTATTTAGGG | 0.996 ± 0.024 |
| AAATCGCGGA | 1.05 ± 0.011 |
| TAGGTTGAAC | 0.974 ± 0.05 |
| GCGCAGACTT | 1.15 ± 0.034 |
| CAGGTTCACC | 1.03 ± 0.012 |
| GGTTCAGGGA | 0.977 ± 0.0099 |
| GAATTATATT | 0.988 ± 0.021 |
| GAAAGGTCGG | 1.21 ± 0.27 |
| CGCTTAGATT | 0.997 ± 0.025 |
| CAGGATTCTG | 1.03 ± 0.059 |
| GTTTTTGAGG | 0.977 ± 0.028 |

| Sequence | switch fluorescence ratio |
| --- | --- |
| TTTTAATGGG | 0.999 ± 0.02 |
| ATAAAAATGG | 1.004 ± 0.0075 |
| AGGAGGGCGA | 0.9582 ± 0.002 |
| CCTTTGGCAG | 1.22 ± 0.06 |
| GATCTAAAAG | 1.03 ± 0.017 |
| TAGGGTATGG | 0.9792 ± 0.0083 |
| AGCGGGATGC | 1.03 ± 0.028 |
| GGTGGAATGT | 0.983 ± 0.049 |
| TTGATTCATG | 0.999 ± 0.04 |
| CGCTACGGTT | 1.042 ± 0.0016 |
| AGGGGGACAG | 0.9761 ± 0.0039 |
| ATTGGGGAGA | 1.04 ± 0.052 |
| GTTTGTAGGC | 0.9641 ± 0.0017 |
| GCGGTGCGGG | 0.9878 ± 0.0042 |
| GGGGGGGGCG | 1.01 ± 0.052 |
| CAGTCTGCTG | 1.0037 ± 0.00071 |
| TAAAAAGTAG | 0.992 ± 0.024 |
| AATAAGAGGG | 1.01 ± 0.026 |
| GATACATTAT | 0.998 ± 0.028 |
| TGTGGTTAGC | 1.01 ± 0.064 |
| TGGGGGGAAA | 1.01 ± 0.054 |
| TCAATTCGAG | 0.9884 ± 0.009 |
| CTCGGGGAGT | 1.012 ± 0.0064 |

| Sequence | switch fluorescence ratio |
| --- | --- |
| GACAGTCTCA | 1.02 ± 0.021 |
| TTTTTGAGCG | 1.04 ± 0.0024 |
| GTTACTTGGT | 1.01 ± 0.034 |
| TCTGGATAGG | 0.9625 ± 0.0058 |
| TTTAGAGGGA | 1.02 ± 0.019 |
| AATTCGTATC | 1.008 ± 0.0024 |
| TTAAATATTT | 0.992 ± 0.022 |
| ATAATAGGG | 0.9773 ± 0.0019 |
| GACGAGATAG | 1.17 ± 0.076 |
| TCTACGGGAT | 2.54 ± 0.2 |
| TATCCAACAT | 1.036 ± 0.00037 |
| CGCGGGGGGG | 1 ± 0.025 |
| GAAAAATTAC | 1.49 ± 0.75 |
| GTGGCGGGGG | 1.01 ± 0.026 |
| TCTGAAATAA | 1.08 ± 0.048 |
| CGTCTAAAC | 1.13 ± 0.021 |
| TTAAAGGGAT | 1.1 ± 0.16 |
| TAGGCGGCGA | 1 ± 0.022 |
| GGTTGGAGTG | 0.963 ± 0.017 |
| GCAGTGCCTA | 0.993 ± 0.044 |
| CTGGTACAGA | 0.97 ± 0.13 |
| AGGGGGCCGT | 0.982 ± 0.042 |
| GACTTCCAGG | 1.05 ± 0.026 |

| Sequence | switch fluorescence ratio |
| --- | --- |
| GACTTTACTG | 1.06 ± 0.049 |
| AGTGGTGAGT | 0.977 ± 0.025 |
| CTTCGGGCGA | 1.1 ± 0.023 |
| TTTTTTTTT | 1.01 ± 0.021 |
| TTAAAGAGGC | 0.993 ± 0.032 |
| TTTGTCCATG | 0.996 ± 0.055 |
| AAGGGGCACT | 1.02 ± 0.047 |
| GACATTTTGC | 1.05 ± 0.028 |
| ACTGGTATTA | 1.02 ± 0.014 |
| GATAAGTCGG | 1.009 ± 0.01 |
| TTCTATATTT | 1.01 ± 0.055 |
| GGTTTATTTG | 1.01 ± 0.016 |
| TAATGTAACG | 1 ± 0.063 |
| CTTAGATAAA | 0.985 ± 0.026 |
| AATGGTGTGT | 1.01 ± 0.018 |
| GGTGTGTCGT | 1.02 ± 0.017 |
| CGAGTTATTG | 1.08 ± 0.094 |
| GGATGCGGGA | 0.98 ± 0.028 |
| AAGGGGAGAG | 0.993 ± 0.018 |
| GCAGAATGCA | 0.9861 ± 0.0024 |
| GATGGTTAAC | 1.01 ± 0.0045 |
| TTTACTTCTA | 1.05 ± 0.017 |
| CATTGTTGAC | 0.961 ± 0.02 |

| Sequence | switch fluorescence ratio |
| --- | --- |
| TTAAAAGAGC | 1.02 ± 0.035 |
| GGCTAGAGCT | 0.982 ± 0.032 |
| GATTTTAGAG | 0.9809 ± 0.003 |
| TGACCGTTTT | 0.999 ± 0.025 |
| TATGTGCAGG | 0.995 ± 0.015 |
| AAAATCGGCG | 1.05 ± 0.073 |
| CTGACTGCAG | 1.01 ± 0.049 |
| TTGTTTTGTA | 0.992 ± 0.024 |
| TTTCAGTTGT | 1.01 ± 0.016 |
| CGGTGGGCGA | 0.987 ± 0.048 |
| GGTATTCGAG | 1.02 ± 0.0013 |
| GGCATTGGCA | 0.995 ± 0.041 |
| ACGGACGCCA | 1.21 ± 0.019 |
| AAGGCGGTCA | 1.01 ± 0.04 |
| ACGGGTAATT | 1.02 ± 0.037 |
| GCTGCTGGTA | 1.02 ± 0.024 |
| TGGTATCGGA | 0.977 ± 0.021 |
| ATGAAATTTT | 1.0061 ± 0.00088 |
| ATGAGGAAGT | 0.987 ± 0.023 |
